The values that follow come from the supplement of paper PMC7877785.

± gives the uncertainty stated by the source.

The nature of the series: self-splicing fitness, log relative to wild type (ln ratio); higher = more splicing; Tetrahymena group I intron in knt gene, E. coli kanamycin selection, DiMSum; sequences stand for … in CUCUCU…GGAGGGAAAAGUUAUCAGGCAUGCACCUGGUAGCUAGUCUUUAAACCAAUAGAUUGCAUCGGUUUAAAAGGCAAGACCGUCAAAUUGCGGGAAAGGGGUCAACAGCCGUUCAGUACCAAGUCUCAGGGGAAACUUUGAGAUGGCCUUGCAAAGGGUAUGGUAAUAAGCUGACGGACAUGGUCCUAACCACGCAGCCAAGUCCUAAGUCAACAGAUCUUCUGUUGAUAUGGAUGCAGUUCACAGACUAAAUGUCGGUCGGGGAAGAUGUAUUCUUCUCAUAAGAUAUAGUCGGACCUCUCCUUAAUGGGAGCUAGCGGAUGAAGUGAUGCAACACUGGAGCCGCUGGGAACUAAUUUGUAUGCGAAAGUAUAUUGAUUAGUUUUGGAGUACUCGUGGUCG
The procedure, abridged: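 The eight P1ex-region nucleotides of an intron in the knt kanamycin-resistance gene on pET-22b(+) were all randomised and the library put into E. coli BL21(DE3). Six replicate transformations were grown overnight at 37°C or 30°C on LB agar with or without 25 μg/mL kanamycin, together with 100 μg/mL carbenicillin, 50 μM IPTG and 0.2% rhamnose. Colonies were pooled and amplicon-sequenced on an Illumina HiSeq 2500. Fitness from DiMSum is the error-weighted combination of wild-type-normalised replicate fold changes, kanamycin over none.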

In the case of GCCGAGCAAUAUUACGUCUA, the “self-splicing fitness (ln)” value by setting is: (30 °C) -3.15 ± 0.29; (37 °C) -0.742 ± 0.15.
The like results for UUUCAGCAAUAUUACGACUC were, in that order, -2.82 ± 0.18 and -0.13 ± 0.14.
For GAGCAGCAAUAUUACGUGGU the same measures were -3.66 ± 0.25 and -2.25 ± 0.23.
For ACUAAGCAAUAUUACGUUCC the same measures were -2.41 ± 0.23 and -1.2 ± 0.29.
Regarding ACCUAGCAAUAUUACGCUCU, the “self-splicing fitness (ln)” value is -0.243 ± 0.096 (30 °C) and -0.447 ± 0.098 (37 °C).
The like results for AUCAAGCAAUAUUACGAAUA were, in that order, -2.36 ± 0.21 and -1.44 ± 0.17.
For AGAGAGCAAUAUUACGAUUU the same measures were -1.52 ± 0.11 and -0.748 ± 0.11.
Take GUUUAGCAAUAUUACGCGGC: the “self-splicing fitness (ln)” value (30 °C) was -1.26 ± 0.49.
As to CCUAAGCAAUAUUACGAGCA, the “self-splicing fitness (ln)” value is -2.92 ± 0.3 (30 °C) and -3.08 ± 0.35 (37 °C).
The like results for CUGCAGCAAUAUUACGGACG were, in that order, -0.355 ± 0.14 and 0.179 ± 0.15.
The like results for UGGCAGCAAUAUUACGUUGG were, in that order, -2.33 ± 0.11 and -0.227 ± 0.13.
Regarding ACAGAGCAAUAUUACGCUAC, under “30 °C”, the “self-splicing fitness (ln)” value was -3.21 ± 0.43.
Consider UAAAAGCAAUAUUACGGGGU, for which the “self-splicing fitness (ln)” value reads like this: (30 °C) -3.96 ± 0.17; (37 °C) -3.21 ± 0.2.
For GCGUAGCAAUAUUACGCGGC the same measures were -2.64 ± 0.27 and -2.08 ± 0.46.
Turning to UUUCAGCAAUAUUACGGCUU, the “self-splicing fitness (ln)” value (30 °C) was -1.39 ± 0.13 and the “self-splicing fitness (ln)” value (37 °C) was -0.047 ± 0.13.
Consider GAUAAGCAAUAUUACGUGCG, for which the “self-splicing fitness (ln)” value was -0.71 ± 0.083 (30 °C) and -0.166 ± 0.13 (37 °C).
Take CGUGAGCAAUAUUACGACAC: where the note is “30 °C”, the “self-splicing fitness (ln)” value was -2.5 ± 0.27.
Regarding UGGAAGCAAUAUUACGAGAU, the “self-splicing fitness (ln)” value runs as follows: (30 °C) -3.92 ± 0.26; (37 °C) -2.47 ± 0.21.
AAAAAGCAAUAUUACGCUGC: the “self-splicing fitness (ln)” value (30 °C) was -3.34 ± 0.4.
Take AAGCAGCAAUAUUACGUCCA: the “self-splicing fitness (ln)” value (30 °C) was -0.662 ± 0.089 and the “self-splicing fitness (ln)” value (37 °C) was -0.156 ± 0.1.
For CAAGAGCAAUAUUACGAAGU the same measures were -3.86 ± 0.34 and -2.3 ± 0.33.
For AGCCAGCAAUAUUACGCCAA the same measures were -3.36 ± 0.19 and -1.75 ± 0.17.
As to GGUCAGCAAUAUUACGGUCG, the “self-splicing fitness (ln)” value was -0.085 ± 0.066 (30 °C) and 0.661 ± 0.09 (37 °C).
The like results for UCCGAGCAAUAUUACGUGUG were, in that order, -3.13 ± 0.11 and -0.996 ± 0.088.
The like results for GAGGAGCAAUAUUACGGGCG were, in that order, -2.68 ± 0.32 and -1.56 ± 0.24.
In the case of CAACAGCAAUAUUACGUACA, the “self-splicing fitness (ln)” value by setting is: (30 °C) -2.28 ± 0.11; (37 °C) -1.12 ± 0.093.
The like results for UGACAGCAAUAUUACGACCC were, in that order, -1.52 ± 0.2 and -1.01 ± 0.25.
For UUUUAGCAAUAUUACGCGCC the same measures were -1.71 ± 0.29 and -0.726 ± 0.28.
Consider ACCCAGCAAUAUUACGCUGG, for which the “self-splicing fitness (ln)” value by setting is: (30 °C) -2.83 ± 0.14; (37 °C) -2.4 ± 0.18.
Consider GCUAAGCAAUAUUACGACGA, for which the “self-splicing fitness (ln)” value is, setting by setting: (30 °C) -0.978 ± 0.088; (37 °C) -0.529 ± 0.1.
For AGCCAGCAAUAUUACGCCUU the same measures were -1.59 ± 0.16 and -0.556 ± 0.2.
The like results for AGCAAGCAAUAUUACGACCU were, in that order, 0.278 ± 0.082 and 0.39 ± 0.11.
The like results for ACAAAGCAAUAUUACGACCC were, in that order, -0.934 ± 0.16 and 0.532 ± 0.21.
For the sequence UGUUAGCAAUAUUACGUGCC, the “self-splicing fitness (ln)” value is, setting by setting: (30 °C) -2.05 ± 0.17; (37 °C) -0.583 ± 0.21.
The like results for GCGUAGCAAUAUUACGUCGA were, in that order, -2.69 ± 0.35 and -1.85 ± 0.32.
For UGGUAGCAAUAUUACGUCUU the same measures were -0.526 ± 0.12 and 0.37 ± 0.13.
The like results for UGAUAGCAAUAUUACGGAGC were, in that order, -3.26 ± 0.24 and -3.25 ± 0.47.
As to CGAAAGCAAUAUUACGACCU, the “self-splicing fitness (ln)” value was -0.917 ± 0.079 (30 °C) and -0.386 ± 0.11 (37 °C).
Consider UAGGAGCAAUAUUACGCAGC, for which the “self-splicing fitness (ln)” value (37 °C) is -2.79 ± 0.36.
Turning to UCUCAGCAAUAUUACGUUAU, the “self-splicing fitness (ln)” value is -2.98 ± 0.095 (30 °C) and -2.8 ± 0.13 (37 °C).
For ACUAAGCAAUAUUACGCUCU the same measures were -0.0344 ± 0.097 and -0.566 ± 0.1.
For AACAAGCAAUAUUACGCAUC the same measures were -2.41 ± 0.15 and -1.77 ± 0.18.
The like results for CGCCAGCAAUAUUACGUUCA were, in that order, -2.8 ± 0.12 and -1.86 ± 0.11.
In the case of UGCCAGCAAUAUUACGGUGA, the “self-splicing fitness (ln)” value runs as follows: (30 °C) -0.97 ± 0.075; (37 °C) 0.0352 ± 0.092.
The like results for UACUAGCAAUAUUACGCGGA were, in that order, -2.97 ± 0.18 and -1.42 ± 0.16.
For AUACAGCAAUAUUACGUAAU the same measures were -1.43 ± 0.085 and -0.584 ± 0.12.
The like results for CCCCAGCAAUAUUACGGCAC were, in that order, -4.46 ± 0.42 and -2.55 ± 0.29.
For CACCAGCAAUAUUACGAUAG, the “self-splicing fitness (ln)” value is -0.377 ± 0.057 (30 °C) and 0.0494 ± 0.064 (37 °C).
For CUAAAGCAAUAUUACGACUG the same measures were 0.0292 ± 0.098 and 0.417 ± 0.12.
The like results for GAGUAGCAAUAUUACGUGUC were, in that order, -1.73 ± 0.16 and -1.53 ± 0.26.
The like results for CAUAAGCAAUAUUACGUGCC were, in that order, -3.1 ± 0.21 and -2.66 ± 0.38.
For AUACAGCAAUAUUACGCUCC, the “self-splicing fitness (ln)” value (30 °C) was -1.47 ± 0.16 and the “self-splicing fitness (ln)” value (37 °C) is -0.769 ± 0.21.
For CUAAAGCAAUAUUACGCGCA the same measures were -2.92 ± 0.23 and -1.64 ± 0.33.
For GAUGAGCAAUAUUACGCGCC the same measures were -3.17 ± 0.3 and -2.26 ± 0.2.
For CCAUAGCAAUAUUACGGAAU the same measures were -1.22 ± 0.15 and -2.38 ± 0.2.
Regarding UAGCAGCAAUAUUACGACUA, the “self-splicing fitness (ln)” value turned out to be 0.282 ± 0.1 (30 °C) and 0.568 ± 0.13 (37 °C).
Consider AACAAGCAAUAUUACGUGCA, for which the “self-splicing fitness (ln)” value was -0.969 ± 0.048 (30 °C) and -0.28 ± 0.065 (37 °C).
For GGGUAGCAAUAUUACGUGGU the same measures were -2.59 ± 0.13 and -2.04 ± 0.17.
Regarding CGAGAGCAAUAUUACGUUGA, where the note is “30 °C”, the “self-splicing fitness (ln)” value is -2.79 ± 0.38.
CUCUAGCAAUAUUACGGAUA: the “self-splicing fitness (ln)” value is, setting by setting: (30 °C) -3.57 ± 0.24; (37 °C) -2.71 ± 0.22.
For ACUAAGCAAUAUUACGGGCU the same measures were -0.833 ± 0.089 and -0.736 ± 0.083.
ACAGAGCAAUAUUACGAAGU: the “self-splicing fitness (ln)” value (30 °C) was -2.65 ± 0.14 and the “self-splicing fitness (ln)” value (37 °C) is -2.58 ± 0.29.
The like results for UCAAAGCAAUAUUACGAUAC were, in that order, -3.34 ± 0.28 and -2.82 ± 0.28.
The like results for UAUUAGCAAUAUUACGCGAC were, in that order, -3.03 ± 0.25 and -1.41 ± 0.24.
For CUCUAGCAAUAUUACGAGUG the same measures were -1.62 ± 0.14 and -1.09 ± 0.15.
For the sequence AAACAGCAAUAUUACGGCUG, the “self-splicing fitness (ln)” value is, setting by setting: (30 °C) -3.47 ± 0.25; (37 °C) -2.07 ± 0.23.
For GGUAAGCAAUAUUACGAUUC the same measures were -0.184 ± 0.14 and 0.0485 ± 0.14.
Take UGGGAGCAAUAUUACGGCGC: the “self-splicing fitness (ln)” value (30 °C) is -1.12 ± 0.38.
UAGGAGCAAUAUUACGAUGA: the “self-splicing fitness (ln)” value is, setting by setting: (30 °C) -2.75 ± 0.26; (37 °C) -1.53 ± 0.21.
With GAUUAGCAAUAUUACGGUUU, the “self-splicing fitness (ln)” value is, setting by setting: (30 °C) -0.946 ± 0.083; (37 °C) 0.231 ± 0.11.
For the sequence UGCGAGCAAUAUUACGUUUC, the “self-splicing fitness (ln)” value (37 °C) is -2.62 ± 0.36.
For AGCCAGCAAUAUUACGAUAC, the “self-splicing fitness (ln)” value is, setting by setting: (30 °C) -3.73 ± 0.14; (37 °C) -3.14 ± 0.14.
Take UAGUAGCAAUAUUACGGCGC: the “self-splicing fitness (ln)” value is -1.6 ± 0.46 (30 °C) and -1.4 ± 0.44 (37 °C).
The like results for ACACAGCAAUAUUACGGAAU were, in that order, -2.58 ± 0.084 and -2.31 ± 0.15.
The like results for AGUAAGCAAUAUUACGAACG were, in that order, -0.785 ± 0.14 and -0.209 ± 0.18.
The like results for UAACAGCAAUAUUACGAGCG were, in that order, -0.617 ± 0.055 and 0.286 ± 0.069.
Consider AUGGAGCAAUAUUACGGUCU, for which the “self-splicing fitness (ln)” value was -1.54 ± 0.14 (30 °C) and -2.04 ± 0.21 (37 °C).
